Key:
Assay in all cases: BLI; BLI on Octet Red 96, biotin-DNA-DRE on SA sensors, protein 0.5-32 uM (HD2) or 0.25-16 uM (HD1-HD2); buffer, salt, pH and temperature not given in the material
DUX4 HD2 N144E = DUX4 HD2 N144E (human, UniProt Q9UBX2 94-153, N144E); settings: protein: recombinant; tags: N-terminal His-tag, removed with thrombin; blunt
DUX4 HD2 Q143E = DUX4 HD2 Q143E (human, UniProt Q9UBX2 94-153, Q143E); settings: protein: recombinant; tags: N-terminal His-tag, removed with thrombin; blunt
DUX4 HD2 R148E = DUX4 HD2 R148E (human, UniProt Q9UBX2 94-153, R148E); settings: protein: recombinant; tags: N-terminal His-tag, removed with thrombin; blunt
DUX4 HD2 R98A = DUX4 HD2 R98A (human, UniProt Q9UBX2 94-153, R98A); settings: protein: recombinant; tags: N-terminal His-tag, removed with thrombin; blunt
DUX4 HD2 R96A = DUX4 HD2 R96A (human, UniProt Q9UBX2 94-153, R96A); settings: protein: recombinant; tags: N-terminal His-tag, removed with thrombin; blunt
DUX4 HD1-HD2 = DUX4 HD1-HD2 (human, UniProt Q9UBX2 19-153); settings: protein: recombinant; blunt
DUX4 HD2 K97A = DUX4 HD2 K97A (human, UniProt Q9UBX2 94-153, K97A); settings: protein: recombinant; tags: N-terminal His-tag, removed with thrombin; blunt
DUX4 HD2 R95A = DUX4 HD2 R95A (human, UniProt Q9UBX2 94-153, R95A); settings: protein: recombinant; tags: N-terminal His-tag, removed with thrombin; blunt
Chain of DUX4 HD2 R95A (Q9UBX2 94-153 R95A): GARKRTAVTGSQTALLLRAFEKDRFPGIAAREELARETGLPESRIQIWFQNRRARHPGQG

Chain of DUX4 HD2 K97A (Q9UBX2 94-153 K97A): as the sequence (Q9UBX2 94-153 R95A) above, with A2R, K4A counted along it
Chain of DUX4 HD2 R98A (Q9UBX2 94-153 R98A): as the sequence (Q9UBX2 94-153 R95A) above, with A2R, R5A counted along it
Chain of DUX4 HD2 Q143E (Q9UBX2 94-153 Q143E): as the sequence (Q9UBX2 94-153 R95A) above, with A2R, Q50E counted along it
Chain of DUX4 HD2 R148E (Q9UBX2 94-153 R148E): as the sequence (Q9UBX2 94-153 R95A) above, with A2R, R55E counted along it
Chain of DUX4 HD1-HD2 (Q9UBX2 19-153): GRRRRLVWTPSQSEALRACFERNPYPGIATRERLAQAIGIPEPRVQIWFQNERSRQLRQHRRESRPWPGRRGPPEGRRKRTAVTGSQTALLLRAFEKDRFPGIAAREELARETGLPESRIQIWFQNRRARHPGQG
Chain of DUX4 HD2 N144E (Q9UBX2 94-153 N144E): as the sequence (Q9UBX2 94-153 R95A) above, with A2R, N51E counted along it
Chain of DUX4 HD2 R96A (Q9UBX2 94-153 R96A): as the sequence (Q9UBX2 94-153 R95A) above, with A2R, R3A counted along it

B1: biotin-DNA-DRE (BLI) (dsDNA)
DNA 1: TTCTAATCTAATCA
DNA 2: TGATTAGATTAGAA
modifications: biotin
DUX4 HD2 N144E
  Kd: 55 µM
DUX4 HD2 Q143E
  Kd: 31 µM
DUX4 HD2 R148E
  Kd: 67 µM
DUX4 HD2 R98A
  binding result: no binding
DUX4 HD2 R96A
  binding result: no binding
DUX4 HD1-HD2
  Kd: 1.4 µM
DUX4 HD2 K97A
  binding result: no binding
DUX4 HD2 R95A
  binding result: no binding

— PMC5990521, “Structural basis of DUX4/IGH-driven transactivation”
